Results published in publication PMC8752837 (2022).

T1: GST-BAK (human)
T1 chain: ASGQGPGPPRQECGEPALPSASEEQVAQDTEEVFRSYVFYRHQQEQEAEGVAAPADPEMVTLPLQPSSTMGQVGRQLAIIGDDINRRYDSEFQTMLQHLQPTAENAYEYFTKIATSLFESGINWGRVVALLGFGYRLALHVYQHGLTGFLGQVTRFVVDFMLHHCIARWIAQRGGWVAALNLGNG

T2: tevBAK (residues 22–186) (human, UniProt Q16611 22-186)
T2 chain: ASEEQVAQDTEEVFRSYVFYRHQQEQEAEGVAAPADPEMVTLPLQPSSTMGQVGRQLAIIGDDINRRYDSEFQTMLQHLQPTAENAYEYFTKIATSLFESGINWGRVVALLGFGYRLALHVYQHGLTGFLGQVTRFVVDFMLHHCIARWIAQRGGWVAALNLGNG


Target: T1, GST-BAK
Test: FP

Row | IC50 | Binder
1 | 6.2 µM | Ac-EDIIRNIARHLAQYGDSMDRSI-NH2 [Y(3) BID BH3 peptide]
2 | 4.6 µM | Ac-EDIIRNIARHLAQMGDSMDRSI-NH2 [M(3) BID BH3 peptide]
3 | 12.2 µM | Ac-EDIIRNIARHLAQVGDSMDRSI-NH2 [WT BID BH3 peptide]
4 | 10.8 µM | Ac-EDIWRNIARHLAQVGDSMDRSI-NH2 [W(0) BID BH3 peptide]
5 | 6.9 µM | Ac-EDIIRNIARHLAQVGDSYDRSI-NH2 [Y(4) BID BH3 peptide]
6 | 11.5 µM | Ac-EDIIRNIARHLAQVGDSWDRSI-NH2 [W(4) BID BH3 peptide]
7 | 11.3 µM | Ac-EDIIRNIARHLAQFGDSMDRSI-NH2 [F(3) BID BH3 peptide]
8 | 11.9 µM | Ac-EDIIRNIARHLAQVGDSFDRSI-NH2 [F(4) BID BH3 peptide]
9 | 6.6 µM | Ac-EDIIRNIARHLAQWGDSMDRSI-NH2 [W(3) BID BH3 peptide]
10 | 8.8 µM | Ac-EDIIRNIARHLAQVGDSMDRSW-NH2 [W(5) BID BH3 peptide]

Target: T2, tevBAK (residues 22–186)
Test: ITC

Row | Kd | Binder
11 | 22.7 µM | Ac-EDIIRNIARHLAQVGDSMDRSI-NH2 [WT BID BH3 peptide]
12 | 0.25 µM | Ac-EDIIRNIARHLAQWGDSMDRSW-NH2 [W(3)W(5) BID BH3 peptide]
